Earlier results as cited in article PMC3137789.

Biological target: plexinC1 (Homo sapiens) (UniProt O60486)
Chain of UniProt O60486 (O60486 35-944): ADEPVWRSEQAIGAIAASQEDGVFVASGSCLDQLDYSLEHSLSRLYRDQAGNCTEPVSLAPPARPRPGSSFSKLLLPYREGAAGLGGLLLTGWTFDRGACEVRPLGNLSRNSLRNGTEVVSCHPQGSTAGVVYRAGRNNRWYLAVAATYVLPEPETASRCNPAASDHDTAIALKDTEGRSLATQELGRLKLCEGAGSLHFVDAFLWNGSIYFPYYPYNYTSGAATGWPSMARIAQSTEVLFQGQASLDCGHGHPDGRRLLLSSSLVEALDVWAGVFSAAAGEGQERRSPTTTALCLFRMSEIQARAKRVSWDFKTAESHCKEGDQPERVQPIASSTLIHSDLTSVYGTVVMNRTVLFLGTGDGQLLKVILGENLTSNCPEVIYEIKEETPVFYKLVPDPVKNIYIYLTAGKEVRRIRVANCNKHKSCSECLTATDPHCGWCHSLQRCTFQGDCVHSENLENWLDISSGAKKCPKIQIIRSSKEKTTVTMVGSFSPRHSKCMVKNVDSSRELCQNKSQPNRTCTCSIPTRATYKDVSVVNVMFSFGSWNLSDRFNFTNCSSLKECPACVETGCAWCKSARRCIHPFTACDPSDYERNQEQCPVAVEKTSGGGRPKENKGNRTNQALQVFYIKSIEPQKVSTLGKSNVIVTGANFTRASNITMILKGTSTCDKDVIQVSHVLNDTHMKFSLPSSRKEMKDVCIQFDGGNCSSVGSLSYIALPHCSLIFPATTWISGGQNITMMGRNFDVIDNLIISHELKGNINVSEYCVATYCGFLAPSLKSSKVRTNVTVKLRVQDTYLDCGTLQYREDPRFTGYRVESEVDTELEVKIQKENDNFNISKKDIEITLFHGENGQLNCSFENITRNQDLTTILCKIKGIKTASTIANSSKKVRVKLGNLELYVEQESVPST

Sema7A (from UniProt O75326)
Kd: 300 nM
